Experimental data as given in patent publication US5446130A, “Parathyroid hormone antagonists” (Mitsubishi Kasei Corporation, priority 1990, dated 1995).
Read-outs that look alike come from different tables or passages of the source. Where no end group is shown, it is not given here. The star is where a group is joined. Myristoyl = CCCCCCCCCCCCCC(=O)*

Experiments:
[1] = system: output of cAMP produced by 5×10^-9 M hPTH (1-34) in cultured mouse osteoblast MC3T3-E1; assay: Determination of PTH antagonism: inhibition of cAMP output induced by hPTH (1-34) in cultured mouse osteoblast MC3T3-E1; format: cell-based
Procedure: PTH antagonism of the PTHrP derivatives (I) of the present invention was determined on the basis of the output of cAMP, using cultured mouse osteoblast MC3T3-E1.
To a multiwell-culture plate of 12-well were inoculated 1×10^5 cells/well of the cultured cells, and the plate was incubated at 37° C. under 95% air-5% CO2 atmosphere for 3 days after addition of α-modified MEM containing 10% semi-fetal bovine serum as a medium. Then, the medium was exchanged with α-modified MEM containing 1% bovine serum albumin and the cultured cells were incubated for 6 hours. The medium was replaced by α-modified MEM containing various concentrations of the compound of the present invention, 5×10^-9 M hPTH (1-34), 1% bovine serum albumin and 1 mM isobutylmethylxanthin, and the mixture was incubated for 1 hour. The medium was separated from the cells, and the medium was used as a sample for assaying cAMP. The cells were shaken with 90% n-propyl alcohol to extract cAMP according to Yamaguchi et al., J. Biol. Chem., 262, 7711-7718 (1987) for preparing another sample.
Assay of cAMP was performed using a commercially available cAMP-radioimmunoassay kit. […] Compound numbers in the tables correspond to those in Table 2.

hPTH (1-34) [2] = target: T1, hPTH (1-34) (human, UniProt P01270)
T1 peptide: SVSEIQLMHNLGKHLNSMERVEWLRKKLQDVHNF

hPTH (1-34) [3] = target: T1, hPTH (1-34); conditions: scale: ratio of IC50 to that of [Tyr34]-hPTH(3-34)-NH2
hPTH (1-34) [4] = target: T1, hPTH (1-34); assay: cell-based or functional assay
hPTH (1-34) [5] = target: T1, hPTH (1-34); assay: cell-based or functional assay
[6] = Table 4, 50% inhibition of cAMP output by 5×10^-9 M hPTH (1-34), ratio to control Compound No. 15 = 1

With CCCCCCCCCCCCCC(=O)N[C@H](C(=O)N[C@@H](CCC(N)=O)C(=O)N[C@@H](CC(C)C)C(=O)N[C@@H](CCSC)C(=O)N[C@@H](Cc1c[nH]cn1)C(=O)N[C@@H](CC(=O)O)C(=O)N[C@@H](CCCCN)C(=O)NCC(=O)N[C@@H](CCCCN)C(=O)N[C@@H](CO)C(=O)N[C@H](C(=O)N[C@@H](CCC(N)=O)C(=O)N[C@@H](CC(=O)O)C(=O)N[C@@H](CC(C)C)C(=O)N[C@@H](CCCNC(=N)N)C(=O)N[C@@H](CCCNC(=N)N)C(=O)N[C@@H](CCCNC(=N)N)C(=O)N[C@@H](Cc1ccccc1)C(=O)N[C@@H](Cc1ccccc1)C(=O)N[C@@H](CC(C)C)C(=O)N[C@@H](Cc1c[nH]cn1)C(=O)N[C@@H](Cc1c[nH]cn1)C(=O)N[C@@H](CC(C)C)C(=O)N[C@H](C(=O)N[C@@H](C)C(=O)N[C@@H](CCC(=O)O)C(=O)N[C@H](C(=O)N[C@@H](Cc1c[nH]cn1)C(=O)N[C@H](C(=O)N[C@@H](C)C(N)=O)[C@@H](C)O)[C@@H](C)CC)[C@@H](C)CC)[C@@H](C)CC)[C@@H](C)CC [Compound No. 22] the “IC50 Ratio” value [1, 6] was 0.765.

For “IQLMHDKGKSIQDLRRRFFLHKLIAEIHTA-NH2 [Compound No. 20]”, the “IC50 Ratio” value [1, 6] was 1.01.

In the case of “IQLMHDKGKSIQDLRRRFFLRHLIAEIHTA-NH2 [Compound No. 19]”, the “IC50 Ratio” value [1, 6] is reported as 0.934.

In the case of “[Leu^11,D-Trp^12 ]-hPTHrP(7-34)-NH2 [(Leu11,D--Trp12)--hPTHrP(7-34)--NH2, reference compound]”, the “IC50 Ratio” value [1, 6] is reported as 3.91.

In the case of “[Leu^11,D-Trp^12]-hPTHrP(7-34)-NH2 (from UniProt P12272) (peptide)”, the IC50 Ratio: 50% inhibition of cAMP output, MC3T3-E1 mouse osteoblasts (ratio of IC50 to that of Compound No. 15) (hPTH (1-34) [2]) is reported as 3.91.

With “[Tyr^34 ]-hPTH (3-34)-NH2 [(Tyr34)--hPTH(3-34)--NH2, reference compound]” the “IC50 Ratio” value ([1]; Table 3, 50% inhibition of cAMP output by 5×10^-9 M hPTH (1-34), ratio to control [Tyr34]-hPTH (3-34)-NH2 = 1) was 1.

For “[Tyr^34]-hPTH (3-34)-NH2 (from UniProt P01270) (peptide)”, the IC50 Ratio: 50% inhibition of cAMP output, MC3T3-E1 mouse osteoblasts (hPTH (1-34) [3]) was 1.

B1: Compound No. 2 (peptide)
peptide: SEIQLMHQLGKSIQDLRRRFFLHHLIAEIHTA-NH2
With B1 the “IC50 Ratio: 50% inhibition of cAMP output, MC3T3-E1 mouse osteoblasts” value (hPTH (1-34) [4]) was 0.003 ratio of IC50 to that of [Tyr34]-hPTH(3-34)-NH2.

B2: Compound No. 14 (peptide)
peptide: IQXMHDKGKSIQDLRRRFFLHHLIAEIHTA
modifications: Nle (norleucine) as third residue (EEE); C-terminal amide (Ala-NH2)
In the case of B2, the “IC50 Ratio: 50% inhibition of cAMP output, MC3T3-E1 mouse osteoblasts” value (hPTH (1-34) [5]) is reported as 0.922 ratio of IC50 to that of Compound No. 15.

B3: Compound No. 19 (peptide)
peptide: IQLMHDKGKSIQDLRRRFFLRHLIAEIHTA-NH2
For B3, the “IC50 Ratio: 50% inhibition of cAMP output, MC3T3-E1 mouse osteoblasts” value (hPTH (1-34) [5]) was 0.934 ratio of IC50 to that of Compound No. 15.

B4: Compound No. 22 (peptide)
peptide: Myristoyl-IQLMHDKGKSIQDLRRRFFLHHLIAEIHTA-NH2
SMILES: CCCCCCCCCCCCCC(=O)N[C@H](C(=O)N[C@@H](CCC(N)=O)C(=O)N[C@@H](CC(C)C)C(=O)N[C@@H](CCSC)C(=O)N[C@@H](Cc1c[nH]cn1)C(=O)N[C@@H](CC(=O)O)C(=O)N[C@@H](CCCCN)C(=O)NCC(=O)N[C@@H](CCCCN)C(=O)N[C@@H](CO)C(=O)N[C@H](C(=O)N[C@@H](CCC(N)=O)C(=O)N[C@@H](CC(=O)O)C(=O)N[C@@H](CC(C)C)C(=O)N[C@@H](CCCNC(=N)N)C(=O)N[C@@H](CCCNC(=N)N)C(=O)N[C@@H](CCCNC(=N)N)C(=O)N[C@@H](Cc1ccccc1)C(=O)N[C@@H](Cc1ccccc1)C(=O)N[C@@H](CC(C)C)C(=O)N[C@@H](Cc1c[nH]cn1)C(=O)N[C@@H](Cc1c[nH]cn1)C(=O)N[C@@H](CC(C)C)C(=O)N[C@H](C(=O)N[C@@H](C)C(=O)N[C@@H](CCC(=O)O)C(=O)N[C@H](C(=O)N[C@@H](Cc1c[nH]cn1)C(=O)N[C@H](C(=O)N[C@@H](C)C(N)=O)[C@@H](C)O)[C@@H](C)CC)[C@@H](C)CC)[C@@H](C)CC)[C@@H](C)CC
B4 was tested, and the “IC50 Ratio: 50% inhibition of cAMP output, MC3T3-E1 mouse osteoblasts” value (hPTH (1-34) [5]) was 0.765 ratio of IC50 to that of Compound No. 15.

B5: Compound No. 21 (peptide)
peptide: Ac-IQLMHDKGKSIQDLRRRFFLHHLIAEIHTA-NH2
In the case of B5, the “IC50 Ratio: 50% inhibition of cAMP output, MC3T3-E1 mouse osteoblasts” value (hPTH (1-34) [5]) is reported as 0.934 ratio of IC50 to that of Compound No. 15.

B6: Compound No. 17 (peptide)
peptide: IQLMHAKGKSIQDLRRRFFLHHLIAEIHTA-NH2
B6 was tested, and the “IC50 Ratio: 50% inhibition of cAMP output, MC3T3-E1 mouse osteoblasts” value (hPTH (1-34) [5]) was 1.17 ratio of IC50 to that of Compound No. 15.

B7: Compound No. 18 (peptide)
peptide: IQLMHALGKSIQDLRRRFFLHHLIAEIHTA-NH2
In the case of B7, the “IC50 Ratio: 50% inhibition of cAMP output, MC3T3-E1 mouse osteoblasts” value (hPTH (1-34) [5]) is reported as 1.97 ratio of IC50 to that of Compound No. 15.

B8: [Ile^5, Met^8]-hPTHrP (5-34)-NH2 (peptide)
peptide: IQLMHDKGKSIQDLRRRFFLHHLIAEIHTA-NH2
In the case of B8, the “IC50 Ratio: 50% inhibition of cAMP output, MC3T3-E1 mouse osteoblasts” value (hPTH (1-34) [5]) is reported as 1 ratio of IC50 to that of Compound No. 15 and the “IC50 Ratio: 50% inhibition of cAMP output, MC3T3-E1 mouse osteoblasts” value (hPTH (1-34) [4]) is reported as 0.017 ratio of IC50 to that of [Tyr34]-hPTH(3-34)-NH2.

B9: Compound No. 10 (peptide)
peptide: XLMHDKGKSIQDLRRRFFLHHLIAEIHTA
modifications: N-terminal myristoyl (Myr-Gln); C-terminal amide (Ala-NH2)
In the case of B9, the “IC50 Ratio: 50% inhibition of cAMP output, MC3T3-E1 mouse osteoblasts” value (hPTH (1-34) [5]) is reported as 2.24 ratio of IC50 to that of Compound No. 15.

B10: Compound No. 1 (peptide)
peptide: SEIQLMHALGKSIQDLRRRFFLHHLIAEIHTA-NH2
B10 was tested, and the “IC50 Ratio: 50% inhibition of cAMP output, MC3T3-E1 mouse osteoblasts” value (hPTH (1-34) [4]) was 0.003 ratio of IC50 to that of [Tyr34]-hPTH(3-34)-NH2.

B11: Compound No. 8 (peptide)
peptide: FQLMHDKGKSIQDLRRRFFLHHLIAEIHTA-NH2
B11 was tested, and the “IC50 Ratio: 50% inhibition of cAMP output, MC3T3-E1 mouse osteoblasts” value (hPTH (1-34) [4]) was 0.026 ratio of IC50 to that of [Tyr34]-hPTH(3-34)-NH2.

B12: Compound No. 20 (peptide)
peptide: IQLMHDKGKSIQDLRRRFFLHKLIAEIHTA-NH2
In the case of B12, the “IC50 Ratio: 50% inhibition of cAMP output, MC3T3-E1 mouse osteoblasts” value (hPTH (1-34) [5]) is reported as 1.01 ratio of IC50 to that of Compound No. 15.

B13: Compound No. 9 (peptide)
peptide: LQLMHDKGKSIQDLRRRFFLHHLIAEIHTA-NH2
With B13 the “IC50 Ratio: 50% inhibition of cAMP output, MC3T3-E1 mouse osteoblasts” value (hPTH (1-34) [5]) was 1.02 ratio of IC50 to that of Compound No. 15.
